Numbered stars: 1 amine (or outer) side, 2 acyl side, 3 side chain; on linkers, the order of the positions; unused ones are H or OH. Square brackets hold non-standard residues; d marks the D form. Peptide text beside a SMILES is read from it. * marks the point of attachment. DOTA = O=C(O)CN1CCN(CC(=O)O)CCN(CC(=O)*)CCN(CC(=O)O)CC1; Cha = N[C@@H](CC1CCCCC1)C(=O)O; X1 = O=C(CCC(=O)[*:2])CN[*:1]; 4Abz = Nc1ccc(C(=O)O)cc1; Nle = CCCC[C@H](N)C(=O)O
Experiments:
[1] = target: T1, BN/GRP receptor-positive PC3 human prostate cancer cells (Homo sapiens, UniProt P30550); experiment: Saturation binding assay on PC3 cells; settings: n = 3-5 experiments; for Bmax (apparent number of binding sites per cell): SD < 15%; for Kd: ~300,000 cells, 0.1-25 nM radiopeptide, 60 min, room temperature, mean ± SD
T1 construct: BN/GRP receptor-positive MDA-MB-231, MCF7, T47D human breast cancer, and PC3 human prostate cancer lines; host or cells: MDA-MB-231, MCF7, T47D (human breast cancer), PC3 (human prostate cancer); intact cells
Protocol: (§1) The cell binding of ^68Ga-radiolabeled peptides into BN/GRP receptor-positive MDA-MB-231, MCF7, T47D human breast cancer, and PC3 human prostate cancer lines (American Type Culture Collection, Rockville, MD, USA) was performed according to the method described previously. In brief, ∼ 300,000 cells (in 300 μL in low-serum media) were incubated with various amounts of radiopeptides, ranging between 0.1 and 25 nM of peptide (prepared from the serial dilutions of HPLC-purified radiopeptides), in duplicate for 60 min at room temperature. The initial concentrations of ^68Ga-labeled peptides were determined according to a well-established HPLC technique with simultaneous detection by UV absorbance. As the amount of BN peptide in the reaction mixture was too small to be detected by UV absorption at 220 nm, the radioactive peptide chromatograms from the HPLC analysis were compared (with UV chromatograms) with those of known concentrations of the corresponding nonradioactive peptides for the mass determination. Incubation was terminated by dilution with cold saline (300 μL) and the cells were pelleted by centrifugation. The cell pellets was then rapidly washed with cold saline to remove any unbound peptide and centrifuged to collect supernatants. Radioactivity in the cell pellet and the washings was measured in a γ-counter. Non-specific binding was determined in the presence of ~ 200-fold molar excess of unlabeled BN peptide. Specific binding is calculated by subtracting the non-specifically bound radioactivity from that of the total binding. The dissociation constant (Kd) was calculated using a plot of cell bound activity versus the concentration of the radioligand using GraphPad Prism software (GraphPad Software Inc., San Diego, CA, USA).

[2] = target: T2, BN/GRP receptor-positive MDA-MB-231 human breast cancer cells (Homo sapiens, UniProt P30550); experiment: Saturation binding assay on MDA-MB-231 cells; settings: n = 3-5 experiments; for Bmax (apparent number of binding sites per cell): SD < 15%; for Kd: ~300,000 cells, 0.1-25 nM radiopeptide, 60 min, room temperature, mean ± SD
T2 construct: BN/GRP receptor-positive MDA-MB-231, MCF7, T47D human breast cancer, and PC3 human prostate cancer lines; host or cells: MDA-MB-231, MCF7, T47D (human breast cancer), PC3 (human prostate cancer); intact cells
Protocol: as §1

[3] = format: physicochemical
Protocol: For lipophilicity determination, each HPLC-purified radiopeptide (~ 20 μL, ∼ 25 μCi) was added into a glass tube containing an equal volume mixture of n-octanol and water (1 mL each). The samples were vigorously vortexed for 5 min and subsequently centrifuged (5000 rpm, 5 min) to yield two immiscible layers. Duplicate samples (100 μL) from each layer were carefully taken (to avoid cross-contamination between the layers) for radioactivity measurement using a γ-counter. Partition coefficient was determined by the function: partition coefficient = Log10 (radioactivity in octanol layer/radioactivity in aqueous layer).

[4] = target: T3, BN/GRP receptor-positive T47D human breast cancer cells (Homo sapiens, UniProt P30550); experiment: Saturation binding assay on T47D cells; settings: n = 3-5 experiments; for Bmax (apparent number of binding sites per cell): SD < 15%; for Kd: ~300,000 cells, 0.1-25 nM radiopeptide, 60 min, room temperature, mean ± SD
T3 construct: BN/GRP receptor-positive MDA-MB-231, MCF7, T47D human breast cancer, and PC3 human prostate cancer lines; host or cells: MDA-MB-231, MCF7, T47D (human breast cancer), PC3 (human prostate cancer); intact cells
Protocol: as §1

[5] = target: T4, BN/GRP receptor-positive MCF7 human breast cancer cells (Homo sapiens, UniProt P30550); experiment: Saturation binding assay on MCF7 cells; settings: n = 3-5 experiments; for Bmax (apparent number of binding sites per cell): SD < 15%; for Kd: ~300,000 cells, 0.1-25 nM radiopeptide, 60 min, room temperature, mean ± SD
T4 construct: BN/GRP receptor-positive MDA-MB-231, MCF7, T47D human breast cancer, and PC3 human prostate cancer lines; host or cells: MDA-MB-231, MCF7, T47D (human breast cancer), PC3 (human prostate cancer); intact cells
Protocol: as §1

[6] = in vivo; format: in vivo, nude mice; settings: female, nude, mouse, in vivo, total radioactivity; for dose excreted at 1 h / dose excreted at 2 h: Radioactivity in Urine + bladder
In short: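 Female mice bore subcutaneous left-thigh xenografts of ~5 million MDA-MB-231 cells in PBS, grown 4-6 weeks to 200-300 mg. Animals received 20-30 μCi of 68Ga-labelled peptide and were sacrificed at set time points; tumour and organ uptake measured by γ-counting.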

[7] = Uptake in Intestines (measured without their contents)

Bmax (apparent number of binding sites per cell) [1]	Kd [1] [µM]	Bmax (apparent number of binding sites per cell) [2]	Kd [2] [µM]	Bmax (apparent number of binding sites per cell) [4]	Kd [4] [µM]	Bmax (apparent number of binding sites per cell) [5]	Kd [5] [µM]	Structure (SMILES)	Log P (octanol/water) [3]	dose excreted at 1 h [6] [%]	dose excreted at 2 h [6] [%]	tissue uptake at 1 h ([6]; Uptake in Blood) [%ID/g]	tissue uptake at 2 h ([6]; Uptake in Blood) [%ID/g]	tissue uptake at 1 h [6, 7] [%ID/g]	tissue uptake at 2 h [6, 7] [%ID/g]	tissue uptake at 1 h ([6]; Uptake in Kidneys) [%ID/g]	tissue uptake at 2 h ([6]; Uptake in Kidneys) [%ID/g]	tissue uptake at 1 h ([6]; Uptake in Liver) [%ID/g]	tissue uptake at 2 h ([6]; Uptake in Liver) [%ID/g]	tissue uptake at 2 h ([6]; Uptake in Lungs) [%ID/g]	further results
2.12 × 10^5 sites/cell	0.0097 ± 0.00201	1.02 × 10^5 sites/cell	0.0151 ± 0.00312	9.90 × 10^4 sites/cell	0.0156 ± 0.00347	2.11 × 10^5 sites/cell	0.0137 ± 0.00232	CCCC[C@H](NC(=O)[C@H](Cc1c[nH]cn1)NC(=O)[C@H](CC1CCCCC1)NC(=O)[C@@H](NC(=O)[C@H](C)NC(=O)[C@H](Cc1c[nH]c2ccccc12)NC(=O)[C@H](CCC(N)=O)NC(=O)[C@H](CS)NC(=O)CNC(=O)CNC(=O)CCC(=O)CNC(=O)CN1CCN(CC(=O)O)CCN(CC(=O)O)CCN(CC(=O)O)CC1)C(C)C)C(=O)N[C@@H](CCSC)C(N)=O [^68Ga-DOTA-ALA-BN Cyclen, metal not drawn] ({DOTA}-[X1]GGCQWAV[Cha]H[Nle]M-NH2)	− 0.80 ± 0.05	62 ± 6.28	71 ± 9.68	0.79 ± 0.13	0.37 ± 0.1	0.9 ± 0.12	0.6 ± 0.1	5.94 ± 0.63	3.2 ± 0.32	1.4 ± 0.26	1.12 ± 0.19	0.67 ± 0.13	tissue uptake at 1 h ([6]; Uptake in Muscle): 0.3 ± 0.06 %ID/g; tissue uptake at 2 h ([6]; Uptake in Muscle): 0.21 ± 0.03 %ID/g; tissue uptake at 1 h ([6]; Uptake in Pancreas): 1.05 ± 0.12 %ID/g; tissue uptake at 2 h ([6]; Uptake in Pancreas): 0.88 ± 0.11 %ID/g; tissue uptake at 1 h ([6]; Uptake in Spleen): 0.26 ± 0.03 %ID/g; tissue uptake at 1 h ([6]; Uptake in Stomach): 0.87 ± 0.19 %ID/g; tissue uptake at 2 h ([6]; Uptake in Stomach): 0.46 ± 0.05 %ID/g
2.63 × 10^5 sites/cell	0.0135 ± 0.00253	1.12 × 10^5 sites/cell	0.0147 ± 0.00224	9.68 × 10^4 sites/cell	0.016 ± 0.00401	1.05 × 10^5 sites/cell	0.0123 ± 0.00194	CCCC[C@H](NC(=O)[C@H](Cc1c[nH]cn1)NC(=O)[C@H](CC1CCCCC1)NC(=O)[C@@H](NC(=O)[C@H](C)NC(=O)[C@H](Cc1c[nH]c2ccccc12)NC(=O)[C@H](CCC(N)=O)NC(=O)[C@H](CS)NC(=O)CNC(=O)CNC(=O)CCC(=O)CNC(=O)CN1CCN(CC(=O)O)CCN(CC(=O)O)CCN(CC(=O)O)CC1)C(C)C)C(=O)N[C@@H](CCSC)C(N)=O [^68Ga-DOTA-ALA-BN Tris-, metal not drawn] ({DOTA}-[X1]GGCQWAV[Cha]H[Nle]M-NH2)	− 0.88 ± 0.07	–	–	–	–	–	–	–	–	–	–	–	–

Structure (SMILES)	Bmax (apparent number of binding sites per cell) [1]	Kd [1] [µM]	Bmax (apparent number of binding sites per cell) [2]	Kd [2] [µM]	Bmax (apparent number of binding sites per cell) [4]	Kd [4] [µM]	Bmax (apparent number of binding sites per cell) [5]	Kd [5] [µM]	Log P (octanol/water) [3]	dose excreted at 1 h [6] [%]	dose excreted at 2 h [6] [%]	tissue uptake at 1 h ([6]; Uptake in Blood) [%ID/g]	tissue uptake at 2 h ([6]; Uptake in Blood) [%ID/g]	tissue uptake at 1 h [6, 7] [%ID/g]	tissue uptake at 2 h [6, 7] [%ID/g]	tissue uptake at 1 h ([6]; Uptake in Kidneys) [%ID/g]	tissue uptake at 2 h ([6]; Uptake in Kidneys) [%ID/g]	tissue uptake at 1 h ([6]; Uptake in Liver) [%ID/g]	tissue uptake at 2 h ([6]; Uptake in Liver) [%ID/g]	tissue uptake at 2 h ([6]; Uptake in Lungs) [%ID/g]	further results
CCCC[C@H](NC(=O)[C@H](Cc1c[nH]cn1)NC(=O)[C@H](CC1CCCCC1)NC(=O)[C@@H](NC(=O)[C@H](C)NC(=O)[C@H](Cc1c[nH]c2ccccc12)NC(=O)[C@H](CCC(N)=O)NC(=O)[C@H](CS)NC(=O)CNC(=O)CNC(=O)c1ccc(NC(=O)CN2CCN(CC(=O)O)CCN(CC(=O)O)CCN(CC(=O)O)CC2)cc1)C(C)C)C(=O)N[C@@H](CCSC)C(N)=O [^68Ga-DOTA-Abz-BN Cyclen, metal not drawn] ({DOTA-4Abz}-GGCQWAV[Cha]H[Nle]M-NH2)	4.30 × 10^5 sites/cell	–	6.09 × 10^5 sites/cell	–	1.17 × 10^5 sites/cell	–	5.12 × 10^5 sites/cell	–	–	61 ± 9.93	78 ± 5.89	1 ± 0.16	0.55 ± 0.1	0.95 ± 0.27	0.54 ± 0.16	6.03 ± 1	5 ± 0.77	2.54 ± 0.46	2 ± 0.37	1.15 ± 0.23	tissue uptake at 1 h ([6]; Uptake in Lungs): 2.8 ± 0.55 %ID/g; tissue uptake at 1 h ([6]; Uptake in Muscle): 0.32 ± 0.06 %ID/g; tissue uptake at 2 h ([6]; Uptake in Muscle): 0.26 ± 0.05 %ID/g; tissue uptake at 1 h ([6]; Uptake in Pancreas): 2.94 ± 0.43 %ID/g; tissue uptake at 2 h ([6]; Uptake in Pancreas): 1.18 ± 0.31 %ID/g; tissue uptake at 1 h ([6]; Uptake in Spleen): 0.22 ± 0.07 %ID/g; tissue uptake at 2 h ([6]; Uptake in Spleen): 0.12 ± 0.02 %ID/g; tissue uptake at 1 h ([6]; Uptake in Stomach): 1.34 ± 0.29 %ID/g; tissue uptake at 2 h ([6]; Uptake in Stomach): 0.49 ± 0.12 %ID/g

Reference: paper PMC6733935, “A convenient and efficient total solid-phase synthesis of DOTA-functionalized tumor-targeting peptides for PET imaging of cancer” (EJNMMI Research, 2019)
